Changes are numbered by the printed parent chain.
T1: cyno TfR extracellular domain (analogous construct to human TfR ecd) (cynomolgus monkey, UniProt Q5RDH6 87-760 (Pongo abelii entry))
T1 construct: also called cynoTfR ecd
T1 chain: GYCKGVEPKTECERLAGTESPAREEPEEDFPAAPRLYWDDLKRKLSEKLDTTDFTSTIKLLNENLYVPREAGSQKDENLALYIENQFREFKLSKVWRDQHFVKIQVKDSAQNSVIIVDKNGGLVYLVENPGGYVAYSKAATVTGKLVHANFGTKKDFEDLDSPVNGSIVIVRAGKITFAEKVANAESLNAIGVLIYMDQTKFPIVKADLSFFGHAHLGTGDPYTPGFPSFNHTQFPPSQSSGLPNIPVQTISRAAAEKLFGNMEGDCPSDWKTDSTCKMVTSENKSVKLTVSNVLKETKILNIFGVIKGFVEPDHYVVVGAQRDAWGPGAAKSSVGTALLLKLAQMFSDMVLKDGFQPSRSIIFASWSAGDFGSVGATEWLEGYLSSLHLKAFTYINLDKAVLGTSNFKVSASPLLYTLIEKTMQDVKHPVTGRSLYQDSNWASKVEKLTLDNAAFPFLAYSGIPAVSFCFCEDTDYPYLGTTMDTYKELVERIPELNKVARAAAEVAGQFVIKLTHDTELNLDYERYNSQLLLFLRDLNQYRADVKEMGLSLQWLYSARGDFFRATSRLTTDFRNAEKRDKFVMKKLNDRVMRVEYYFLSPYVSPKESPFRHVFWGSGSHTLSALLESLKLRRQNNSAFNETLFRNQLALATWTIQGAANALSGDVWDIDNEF

B1: 5881 (antibody, V domains shown)
VH: EVQLLESGGGLVQPGGSLRLSCAASGFTFSKYAMSWVRQAPGKGLEWVSAISGSGISTPYADSVKGRFTISRDNSKNTLYLQMNSLRAEDTAVYYCAKGAGHGSYVKGWFDPWGQGTLVTVSS
VL: EIVLTQSPATLSLSPGERATLSCRASQSVSSYLAWYQQKPGQAPRLLIYDASNRATGIPARFSGSGSGTDFTLTISSLEPEDFAVYYCQQSVNFPFTFGGGTKVEIK
notes: anti-BACE1 IgG
B2: 5876 (antibody, V domains shown)
VH: EVQLLESGGGLVQPGGSLRLSCAASGFTFSSRAMGWVRQAPGKGLEWVSATSGSGGSIYYADSVKGRFTISRDNSKNTLYLQMNSLRAEDTAVYYCAKGGSQWLYAPGSWFDPWGQGTLVTVSS
VL: B1 VL with Q89V, S91R, V92S, F96W
notes: anti-BACE1 IgG
B3: 5875 (antibody, V domains shown)
VH: B2 VH with S31T, R32Y, I58T
VL: B1 VL with Q89V, S91R, V92S, F96W
notes: anti-BACE1 IgG
B4: 5260 (antibody, V domains shown)
VH: QVQLVQSGAEVKKPGSSVKVSCKASGGTFSSYAISWVRQAPGQGLEWMGSIIPIFGTANYAQKFQGRVTITADESTSTAYMELSSLRSEDTAVYYCARSGGTKYGMLDVWGQGTMVTVSS
VL: EIVMTQSPATLSVSPGERATLSCRASQSVGSNLAWYQQKPGQAPRLLIYGASTRATGIPARFSGSGSGTEFTLTISSLQSEDFAVYYCQQAVVWPPRTFGGGTKVEIK
notes: anti-BACE1 IgG
B5: 5571 (antibody, V domains shown)
VH: B4 VH with S50N, M115V
VL: B4 VL with G30S, A91L, V92I, V93L
notes: anti-BACE1 IgG
B6: 5883 (antibody, V domains shown)
VH: B4 VH with S50G, F55G, T57G
VL: B4 VL with G30S, A91L, V92I, V93L
notes: anti-BACE1 IgG
B7: 5572 (antibody, V domains shown)
VH: B4 VH
VL: B4 VL with A91L, V92Y, V93T
notes: anti-BACE1 IgG
B8: 5644 (antibody, V domains shown)
VH: QLQLQESGPGLVKPSETLSLTCTVSGGSISSSSYYWGWIRQPPGKGLEWIGSIYYSGSTYYNPSLKSRVTISVDTSKNQFSLKLSSVTAADTAVYYCARVGHGISYFDLWGRGTLVTVSS
VL: EIVLTQSPATLSLSPGERATLSCRASQSVSSYLAWYQQKPGQAPRLLIYDASKRATGIPARFSGSGSGTDFTLTISSLEPEDFAVYYCQQVYTWPPRTFGGGTKVEIK
notes: anti-BACE1 IgG
B9: hu7A4.v8 (antibody, V domains shown)
VH: EVQLVQSGAEVKKPGASVKVSCKGSGYTFTDYAMHWVRQAPGQGLEWMGGISTYFGRTNYNQKFKGRVTMTVDTSISTAYMELSRLRSDDTAVYYCARGLSGNYVMDYWGQGTTVTVSS
VL: DIVMTQSPDSLAVSLGERATINCRASESVDSYGNSFMHWYQQKPGQPPKLLIYRASNLESGIPDRFSGSGSGTDFTLTISSLQAEDVAVYYCQQSNEGPPTFGQGTKLEIK
notes: IgG
B10: hu15G11.v1 (antibody, V domains shown)
VH: EVQLVQSGAEVKKPGASVKVSCKASGYTFTSYWMHWVRQAPGQRLEWMGEINPTNGRTNYIEKFKSRVTITRDTSASTAYMELSSLRSEDTAVYYCARGTRAYHYWGQGTMVTVSS
VL: DIQMTQSPSSLSASVGDRVTITCRASDNLYSNLAWYQQKPGKAPKLLLYDATNLADGVPSRFSGSGSGTDYTLTISSLQPEDFATYYCQHFWGTPLTFGQGTKVEIK
notes: IgG; HC 48 M, 67 V, 69 I, 71 R, 73 T
B11: hu15G11.v3 (antibody, V domains shown)
VH: B10 VH
VL: B10 VL with A43S, L48V
notes: as for B10
B12: hu15G11.v2 (antibody, V domains shown)
VH: B10 VH with R72V
VL: B10 VL
notes: IgG; HC 48 M, 67 V, 69 I, 71 V, 73 T
B13: hu15G11.v4 (antibody, V domains shown)
VH: B10 VH with R72V
VL: B10 VL with A43S, L48V
notes: as for B12
B14: hu7A4.v1 (antibody, V domains shown)
VH: B9 VH with G24A, V72R
VL: B9 VL with I62V
notes: IgG
B15: hu7A4.v4 (antibody, V domains shown)
VH: B9 VH
VL: B9 VL with I62V
notes: IgG
B16: hu7A4.v6 (antibody, V domains shown)
VH: B9 VH with V72R
VL: B9 VL
notes: IgG
B17: hu7A4.v2 (antibody, V domains shown)
VH: B9 VH with V72R
VL: B9 VL with I62V
notes: IgG
B18: hu7A4.v3 (antibody, V domains shown)
VH: B9 VH with G24A
VL: B9 VL with I62V
notes: IgG

Biological target: BACE1 (HTRF long substrate and FRET short substrate assays of Example 9D)
Assay: cell-based or functional assay

Going from B1 to B2, the “EC50, FRET short substrate” value falls from 5.93 nM to 0.703 nM (8.4-fold).

Going from B3 to B4, the “EC50, FRET short substrate” value rises from 1.99 nM to 36.8 nM (18-fold).

B5 and B6 are within 1.5-fold of each other in “EC50, FRET short substrate” value: 0.417 nM for the first, 0.607 nM for the second.

First: B7
Second: B8
The “EC50, FRET short substrate” value of the first is 1.9-fold higher: 15.9 nM for the first, 8.47 nM for the second.

First: B1
Second: B2
The “EC50, HTRF long substrate” value of the first is 20-fold higher: 33.7 nM for the first, 1.67 nM for the second.

First: B3
Second: B4
The “EC50, HTRF long substrate” value of the first is 150-fold lower: 4.9 nM for the first, 720 nM for the second.

B5 and B6 are within 1.5-fold of each other in “EC50, HTRF long substrate” value: 5.06 nM for the first, 5.93 nM for the second.

Compared with B7, B8 is 6.8-fold higher in “EC50, HTRF long substrate” value: 1.28 nM for the first, 8.75 nM for the second.

Biological target: T2, human BACE1 (R&D Systems) (human, UniProt P56817)
T2 construct: recombinant, commercial (R&D Systems)
T2 sequence (P56817 22-457 limits assumed): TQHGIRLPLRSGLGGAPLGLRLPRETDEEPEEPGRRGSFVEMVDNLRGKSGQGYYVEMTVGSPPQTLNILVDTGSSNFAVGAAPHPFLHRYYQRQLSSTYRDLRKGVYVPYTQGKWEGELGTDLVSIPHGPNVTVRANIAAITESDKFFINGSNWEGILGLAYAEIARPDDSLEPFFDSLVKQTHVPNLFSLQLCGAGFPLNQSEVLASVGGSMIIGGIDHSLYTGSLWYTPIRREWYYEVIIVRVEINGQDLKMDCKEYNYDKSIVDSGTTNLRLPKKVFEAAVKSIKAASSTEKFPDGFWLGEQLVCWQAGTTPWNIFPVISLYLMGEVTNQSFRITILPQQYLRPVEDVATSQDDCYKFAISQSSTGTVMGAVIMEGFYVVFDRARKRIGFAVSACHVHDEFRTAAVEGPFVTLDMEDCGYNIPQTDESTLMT
Assay: SPR (Biacore)

Compared with B1, B2 is 11-fold lower in Kd: 7.92 nM for the first, 0.72 nM for the second.

Going from B3 to B4, the Kd rises from 1.94 nM to 14.5 nM (7.5-fold).

B5 and B6 are within 1.5-fold of each other in Kd: 7.31 nM for the first, 6.04 nM for the second.

Compared with B7, B8 is 4.7-fold higher in Kd: 2.82 nM for the first, 13.3 nM for the second. The first binds more tightly here.

Biological target: BACE1 in primary mouse cortical neurons (mouse, UniProt P56818 46-501)
Sequence (P56818 46-501): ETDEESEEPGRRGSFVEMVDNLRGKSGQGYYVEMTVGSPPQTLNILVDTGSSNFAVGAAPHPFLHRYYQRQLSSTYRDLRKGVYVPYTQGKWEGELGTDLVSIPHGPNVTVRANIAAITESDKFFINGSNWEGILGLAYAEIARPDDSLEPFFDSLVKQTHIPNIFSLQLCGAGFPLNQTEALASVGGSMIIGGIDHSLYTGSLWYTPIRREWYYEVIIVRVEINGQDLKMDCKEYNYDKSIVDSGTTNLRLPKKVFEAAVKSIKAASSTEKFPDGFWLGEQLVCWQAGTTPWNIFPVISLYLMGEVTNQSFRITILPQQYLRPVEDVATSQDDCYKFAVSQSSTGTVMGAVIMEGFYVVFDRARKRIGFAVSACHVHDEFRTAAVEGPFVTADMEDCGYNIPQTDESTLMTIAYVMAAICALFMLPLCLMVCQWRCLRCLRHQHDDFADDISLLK
Assay: cell-based or functional assay

First: B4
Second: B5
The “IC50, Abeta x-40 in mouse cortical neurons” value of the first is 6.6-fold higher: 46.7 nM for the first, 7.11 nM for the second.

First: B6
Second: B7
The “IC50, Abeta x-40 in mouse cortical neurons” value of the first is 3-fold lower: 9.11 nM for the first, 27.1 nM for the second.

B8 was tested, and the “IC50, Abeta x-40 in mouse cortical neurons” value was 8.33 nM.

Going from B4 to B5, the “maximal % inhibition of Abeta x-40” value rises from 74% to 84%.

Compared with B6, B7 is lower in “maximal % inhibition of Abeta x-40” value: 82% for the first, 73% for the second.

With B8 the “maximal % inhibition of Abeta x-40” value was 72%.

Biological target: T3, human BACE1 ECD
T3 construct: analyte of the Octet assay (200 nM) and enzyme of the first short substrate assay; also called human BACE1 extracellular domain
T3 sequence (single chain, as listed by the source limits assumed): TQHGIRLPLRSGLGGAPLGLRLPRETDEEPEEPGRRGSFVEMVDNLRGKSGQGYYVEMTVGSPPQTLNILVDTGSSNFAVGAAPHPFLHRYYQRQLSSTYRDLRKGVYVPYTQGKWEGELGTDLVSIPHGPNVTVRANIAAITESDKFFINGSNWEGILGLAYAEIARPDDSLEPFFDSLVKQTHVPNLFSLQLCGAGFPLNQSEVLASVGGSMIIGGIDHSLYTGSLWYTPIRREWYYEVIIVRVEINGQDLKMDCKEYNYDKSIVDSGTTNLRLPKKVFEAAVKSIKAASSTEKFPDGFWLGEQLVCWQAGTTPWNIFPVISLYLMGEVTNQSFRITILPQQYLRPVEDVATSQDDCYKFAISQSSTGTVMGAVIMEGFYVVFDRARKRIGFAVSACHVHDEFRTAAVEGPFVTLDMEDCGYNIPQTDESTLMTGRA
Assay: Octet, pH 7.5;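 note: antibodies captured on anti-human capture biosensor tips, dissociation followed in PBS with BSA buffer, kinetics fitted with a one-to-one binding model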

Going from B1 to B2, the Kd rises from 2.6 nM to 9.4 nM (3.6-fold). The first binds more tightly here.

Going from B3 to B4, the Kd rises from 32 nM to 94 nM (2.9-fold).

B5 and B6 are within 1.5-fold of each other in Kd: 5 nM for the first, 4.6 nM for the second.

First: B7
Second: B8
The Kd of the first is 17-fold lower: 0.86 nM for the first, 15 nM for the second.

Biological target: T4, murine BACE1 ECD
T4 construct: analyte of the Octet assay (200 nM) and enzyme of the first short substrate assay
T4 sequence (single chain, as listed by the source limits assumed): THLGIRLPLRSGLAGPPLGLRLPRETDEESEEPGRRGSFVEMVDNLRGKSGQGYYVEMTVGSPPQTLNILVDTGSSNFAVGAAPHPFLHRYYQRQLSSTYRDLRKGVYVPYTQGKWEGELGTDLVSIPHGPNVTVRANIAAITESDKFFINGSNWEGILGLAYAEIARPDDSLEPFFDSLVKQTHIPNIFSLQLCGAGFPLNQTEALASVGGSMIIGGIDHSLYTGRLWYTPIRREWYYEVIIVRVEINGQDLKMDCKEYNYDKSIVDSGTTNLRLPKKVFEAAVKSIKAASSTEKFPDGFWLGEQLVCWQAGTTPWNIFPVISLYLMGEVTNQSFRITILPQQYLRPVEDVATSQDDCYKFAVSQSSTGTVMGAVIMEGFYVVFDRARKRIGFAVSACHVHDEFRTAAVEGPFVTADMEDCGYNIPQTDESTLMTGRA
Assay: Octet, pH 7.5;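 note: antibodies captured on anti-human capture biosensor tips, dissociation followed in PBS with BSA buffer, kinetics fitted with a one-to-one binding model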

Compared with B1, B2 is 4-fold higher in Kd: 2.4 nM for the first, 9.7 nM for the second. The first binds more tightly here.

First: B3
Second: B4
The Kd of the first is 4.3-fold lower: 22 nM for the first, 94 nM for the second.

B5 and B6 are within 1.5-fold of each other in Kd: 5.4 nM for the first, 6.6 nM for the second.

First: B7
Second: B8
The Kd of the first is 6.8-fold lower: 2.5 nM for the first, 17 nM for the second.

Biological target: T3, human BACE1 ECD
Assay: cell-based or functional assay

Compared with B1, B2 is lower in “% inhibition of BACE1 activity, short FRET substrate” value (from here on “% inhibition of BACE1 activity”): 97% for the first, 58% for the second.

Going from B3 to B4, the “% inhibition of BACE1 activity” value falls from 51% to -54%.

First: B5
Second: B6
The “% inhibition of BACE1 activity” value of the first is higher: -89% for the first, -129% for the second.

Going from B7 to B8, the “% inhibition of BACE1 activity” value falls from 75% to 65%.

Biological target: T4, murine BACE1 ECD
Assay: cell-based or functional assay

Compared with B1, B2 is lower in “% inhibition of BACE1 activity” value: 98% for the first, 46% for the second.

Going from B3 to B4, the “% inhibition of BACE1 activity” value falls from 39% to -35%.

Going from B5 to B6, the “% inhibition of BACE1 activity” value falls from -175% to -275%.

First: B7
Second: B8
The “% inhibition of BACE1 activity” value of the first is higher: 77% for the first, 63% for the second.

Biological target: T5, human TfR extracellular domain with N-terminal His tag (human, UniProt P02786 89-760)
T5 construct: Biotinylated in some assays; also called huTfR; HuTfR
T5 sequence (P02786 89-760 G142S): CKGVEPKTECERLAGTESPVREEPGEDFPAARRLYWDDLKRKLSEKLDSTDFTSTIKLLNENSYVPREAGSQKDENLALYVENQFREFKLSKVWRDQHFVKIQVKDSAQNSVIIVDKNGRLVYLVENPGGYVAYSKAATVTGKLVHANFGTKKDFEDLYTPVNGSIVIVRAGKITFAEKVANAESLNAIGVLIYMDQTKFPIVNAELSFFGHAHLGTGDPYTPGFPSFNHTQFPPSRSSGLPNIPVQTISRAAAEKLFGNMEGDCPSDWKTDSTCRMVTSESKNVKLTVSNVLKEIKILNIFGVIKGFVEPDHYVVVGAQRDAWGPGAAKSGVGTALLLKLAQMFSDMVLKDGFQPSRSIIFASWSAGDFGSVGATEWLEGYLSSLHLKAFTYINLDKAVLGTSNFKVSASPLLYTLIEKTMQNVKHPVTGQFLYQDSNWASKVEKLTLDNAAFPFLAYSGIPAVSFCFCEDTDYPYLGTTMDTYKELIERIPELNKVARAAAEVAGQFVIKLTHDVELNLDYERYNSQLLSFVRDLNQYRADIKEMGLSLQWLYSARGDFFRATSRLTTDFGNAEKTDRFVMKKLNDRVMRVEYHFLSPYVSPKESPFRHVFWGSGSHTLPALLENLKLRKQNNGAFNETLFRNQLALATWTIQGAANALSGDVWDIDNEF
Assay: SPR, IgG;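 note: His-tagged TfR captured via immobilized anti-His antibody on a CM5 chip, antibody injected in 3-fold dilution series by single cycle kinetics, 1:1 Langmuir or steady-state fit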

B9 showed a Kd of 1.29 nM.

Biological target: T1, cyno TfR extracellular domain …
Assay: SPR, IgG;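 note: His-tagged TfR captured via immobilized anti-His antibody on a CM5 chip, antibody injected in 3-fold dilution series by single cycle kinetics, 1:1 Langmuir or steady-state fit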

Compared with B10, B11 is 1.9-fold lower in Kd: 10.1 nM for the first, 5.34 nM for the second. The second binds more tightly here.

Going from B12 to B13, the Kd falls from 17.6 nM to 7.04 nM (2.5-fold).

Compared with B14, B15 is 2.3-fold higher in Kd: 1.67 nM for the first, 3.83 nM for the second. The first binds more tightly here.

B16 and B17 are within 1.5-fold of each other in Kd: 1.06 nM for the first, 1.22 nM for the second.

B18 showed a Kd of 2.9 nM.

Biological target: T5, human TfR extracellular domain with …
Assay: SPR, IgG;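 note: His-tagged TfR captured via immobilized anti-His antibody on a CM5 chip, antibody injected in 3-fold dilution series by single cycle kinetics, 1:1 Langmuir or steady-state fit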
Remark: another data set of the same source

B10 and B11 are within 1.5-fold of each other in Kd: 5.12 nM for the first, 4.12 nM for the second.

Going from B12 to B13, the Kd falls from 9.35 nM to 3.89 nM (2.4-fold). The second binds more tightly here.

First: B14
Second: B15
The Kd of the first is 2.2-fold lower: 0.279 nM for the first, 0.612 nM for the second. The first binds more tightly here.

B16 and B17 are within 1.5-fold of each other in Kd: 0.26 nM for the first, 0.232 nM for the second.

B18 showed a Kd of 0.543 nM.

Biological target: T3, human BACE1 ECD
Assay: Octet, pH 5.0

First: B1
Second: B2
The Kd of the first is 2.8-fold lower: 11 nM for the first, 31 nM for the second.

Going from B3 to B4, the Kd rises from 50 nM to 120 nM (2.4-fold). The first binds more tightly here.

B5 and B6 are within 1.5-fold of each other in Kd: 8.2 nM for the first, 8.7 nM for the second.

First: B7
Second: B8
The Kd of the first is 8-fold lower: 1.5 nM for the first, 12 nM for the second. The first binds more tightly here.

Biological target: T4, murine BACE1 ECD
Assay: Octet, pH 5.0

Compared with B1, B2 is 2.9-fold higher in Kd: 15 nM for the first, 43 nM for the second. The first binds more tightly here.

Compared with B3, B4 is 1.5-fold higher in Kd: 120 nM for the first, 180 nM for the second.

B5 and B6 are within 1.5-fold of each other in Kd: 8.4 nM for the first, 11 nM for the second.

Going from B7 to B8, the Kd rises from 2 nM to 11 nM (5.5-fold). The first binds more tightly here.

— patent publication US20180057604A1 (Genentech, published 2018)
